These results are taken from the RNAGym collection of RNA variant scans (doi:10.7554/elife.80360).

B1: Hairpin Ribozyme (parent)
chain: GUCCUCUUUCACGUGCGCGUGAAAGAGAGAAGUGAACCAGAGAAACACACGUUGUGGUAUAUUACCUGGUA

Variants of B1 are the subject of the data set. The data set is described as follows: self-cleavage, relative activity (ratio to wild type); higher = more cleavage; co-transcriptional.
With GUCAUCUUUCACGUGCGCGUGAUAGAGAGAAGUGAACCAGAGAAACACACGUUGUGGUAUAUUACCUGGUA [C4A A23U], the self-cleavage stood at 0.251.
As to GUUCUCUUUCACGUGCGCGUGAAAGAGAGAAGUAAACCAGAGAAACACACGUUGUGGUAUAUUACCUGGUA [C3U G34A], the self-cleavage worked out at 0.747.
On to GUUCUCUUUCACGUGCGCGUGAAAGAGAGAACUGAACCAGAGAAACACACGUUGUGGUAUAUUACCUGGUA [C3U G32C], for which the self-cleavage was 0.133.
The figure for GUUCUCUAUCACGUGCGCGUGAAAGAGAGAAGUGAACCAGAGAAACACACGUUGUGGUAUAUUACCUGGUA [C3U U8A] is 0.361.
The figure for GUUCUCUUUCACGUGCGCGUAAAAGAGAGAAGUGAACCAGAGAAACACACGUUGUGGUAUAUUACCUGGUA [C3U G21A] is 0.483; for GUUCUCUUUCACGUGCGCGUGAAAGAGAAAAGUGAACCAGAGAAACACACGUUGUGGUAUAUUACCUGGUA [C3U G29A] it is 0.173; for GUUCUCUUUCACGUGCGCGUGAAAGAGAGAAGUGAACCAGAGAAACACACGUAGUGGUAUAUUACCUGGUA [C3U U53A] it is 0.495.
Consider GUUCUCUUUCACGUGCGCGUGAAAGAGAGAAGUGAACCAGAGAAACACACGUUGUGGUAUAAUACCUGGUA [C3U U62A], for which the self-cleavage stood at 0.158.
As for GUCAUCUUUCUCGUGCGCGUGAAAGAGAGAAGUGAACCAGAGAAACACACGUUGUGGUAUAUUACCUGGUA [C4A A11U], the self-cleavage amounted to 0.258.
For GUCAUCUUUCGCGUGCGCGUGAAAGAGAGAAGUGAACCAGAGAAACACACGUUGUGGUAUAUUACCUGGUA [C4A A11G], the self-cleavage was found to be 0.158.
With GUUCUCGUUCACGUGCGCGUGAAAGAGAGAAGUGAACCAGAGAAACACACGUUGUGGUAUAUUACCUGGUA [C3U U7G], the self-cleavage turned out to be 0.464.
In the case of GUUCUCCUUCACGUGCGCGUGAAAGAGAGAAGUGAACCAGAGAAACACACGUUGUGGUAUAUUACCUGGUA [C3U U7C], the self-cleavage was 0.553.
Turning to GUUCUCUUUCACGUGCGCGUGAAAGAGAGAAGUGAACCAGAGAAACACACGUUGUGGUAUAUUACCGGGUA [C3U U67G], the self-cleavage was determined as 0.164.
Regarding GUUCUCUUUCACGUGCGCGUGAAAGAGAGAAGUGAACCAGAGAAACACACGUUGUGGUAUAUUACCUGGGA [C3U U70G], the self-cleavage was 0.371.
For GUUCACUUUCACGUGCGCGUGAAAGAGAGAAGUGAACCAGAGAAACACACGUUGUGGUAUAUUACCUGGUA [C3U U5A], the self-cleavage is 0.429.
Next, GUUCUCUUUCACGGGCGCGUGAAAGAGAGAAGUGAACCAGAGAAACACACGUUGUGGUAUAUUACCUGGUA [C3U U14G]: 0.442; GUUCUCUUUCACGUGCGCGUGAAAGAGAGAAGGGAACCAGAGAAACACACGUUGUGGUAUAUUACCUGGUA [C3U U33G]: 0.126; GUUCUCUUUCACGUGCGCGUGAAAGAGAGAAGCGAACCAGAGAAACACACGUUGUGGUAUAUUACCUGGUA [C3U U33C]: 0.167.
With GUUCUCUUUCACGUGCGCGUGAAAGAGAGAAGAGAACCAGAGAAACACACGUUGUGGUAUAUUACCUGGUA [C3U U33A], the self-cleavage came out at 0.147.
On to GUUCUCUUUCACGUGCGCGUGAAAGAGAGAAGUGAACCAGAGAAACACACGUUGUGGUAUAUGACCUGGUA [C3U U63G], for which the self-cleavage amounted to 0.12.
Consider GUUCUCUUUCACGUGCGCGUGAAAGAGAGAAGUGAACCAGAGAAACACACGUUGUGGUAUAUCACCUGGUA [C3U U63C], for which the self-cleavage is 0.264.
As for GUUCUCUUUCACGUGCGCUUGAAAGAGAGAAGUGAACCAGAGAAACACACGUUGUGGUAUAUUACCUGGUA [C3U G19U], the self-cleavage turned out to be 0.502.
In the case of GUUCUCUUUCACGUGCGCGUGAAAGAGAGAAGUGAACCAGAGAAACACACGUUGUGUUAUAUUACCUGGUA [C3U G57U], the self-cleavage stood at 0.204.
For the variant GUUCUCUUUCACGUGCGCGUGAAAGAGAGAAGUGAACCAGAGAAACACACGUUGUGAUAUAUUACCUGGUA [C3U G57A], the self-cleavage is 0.0631.
As for GUUCUCUUUCACGUGCGCGUGAAAGAGAGAAGUGAACCAGAGAAACACACGUUGUGGUAUAUUACCUGUUA [C3U G69U], the self-cleavage turned out to be 0.106.
With GUUCUCUUUCACGUGCGCGUGAAAGAGAGAAGUGAACCAGAGAAACACACGUUGUGGGAUAUUACCUGGUA [C3U U58G], the self-cleavage amounted to 0.404.
Take GUUCUCUUUCACGUGCGCGUGAAAGAGAGAAGUGAACCAGAGAAACACACGUUCUGGUAUAUUACCUGGUA [C3U G54C]: the self-cleavage was determined as 0.211.
The figure for GUUCUCUUUCACGUGCGCGUGAAACAGAGAAGUGAACCAGAGAAACACACGUUGUGGUAUAUUACCUGGUA [C3U G25C] is 0.0917; for GUCAUCUUUCACGUGCGCGUGAAUGAGAGAAGUGAACCAGAGAAACACACGUUGUGGUAUAUUACCUGGUA [C4A A24U] it is 0.196; for GUCAUCUUUCACGUGCGCGUGAAAGAGAGGAGUGAACCAGAGAAACACACGUUGUGGUAUAUUACCUGGUA [C4A A30G] it is 0.105.
The figure for GUCAUCUUUCACGUGCGCGUGAAAGAGAGUAGUGAACCAGAGAAACACACGUUGUGGUAUAUUACCUGGUA [C4A A30U] is 0.228; for GUUCUCUUUCACGUGCGCGUGAAAGAUAGAAGUGAACCAGAGAAACACACGUUGUGGUAUAUUACCUGGUA [C3U G27U] it is 0.15.
Turning to GUUCUCUUUCACGUGCGCGUGAAAGAGAGAAGUGAACCAGAGAAACACACCUUGUGGUAUAUUACCUGGUA [C3U G51C], the self-cleavage stood at 0.402.
Next, GUUCUCUUUCACGUGCGCGUGAAAGAGAGAAGUGAACCAGAGAAACACACUUUGUGGUAUAUUACCUGGUA [C3U G51U]: 0.538; GUUCUCUUUCACGUGCGCGUGAAAGAGAGAAGUGAACCAGAGAAACACACGUUGUGGUAUAUUACCUUGUA [C3U G68U]: 0.19.
On to GUUCUCUUUCACGUGCGCGGGAAAGAGAGAAGUGAACCAGAGAAACACACGUUGUGGUAUAUUACCUGGUA [C3U U20G], for which the self-cleavage turned out to be 0.561.
As for GUUCUCUUUCACGUGCGCGUGAAAGAGAGAAGUGAACCAGAGAAACACACGUUGGGGUAUAUUACCUGGUA [C3U U55G], the self-cleavage stood at 0.208.
The figure for GUUCUCUUUCACGUGCGCGUGAAAGAGAGAAGUGAACCAGAGAAACACACGUUGAGGUAUAUUACCUGGUA [C3U U55A] is 0.0909.
